Source: patent US7173007B1, “Therapy for microbial infections” (The Regents of the University of California, priority 2003, dated 2007)

Key:
MRSA = assay: Colony-forming assay (CFU), liquid phase; type: cell-based, Staphylococcus aureus; settings: 10 mM phosphate, 1% TSB, pH 7.4
Protocol: (§1) FIGS. 3A–C show Growth inhibition of MRSA, E. coli, and P. aeruginosa by cathelin-like protein. (a) Inhibition zone ssay on tryptone/agarose plates with MRSA. Clear circles show lack of bacterial growth. Lanes 1, 3, 5, bottom row: cathelin-like protein at […], 16 μM, respectively. Lane 2, top row:[…] of His-tagged cathelin-like protein before cleavage. Lane 4, top: enterokinase enzyme alone. All assays were performed in duplicate and repeated three times. (b), (c) CFU assay: growth inhibition of (b) MRSA and (c) E. coli, cultured in 10 mM phosphate and 1% TSB (pH 7.4) and then supplemented with different concentrations of human cathelin-like protein.
(§2) The colony-forming assay (CFU) was performed. Bacterial cultures (E. coli or MRSA) were collected at the logarithmic phase of growth in TSB, washed twice with phosphate-buffered saline, pH 7.4, and diluted to 104 CFU per ml in 10 mM phosphate buffer, pH 7.4, Na2HPO4/NaH2PO4-1% TSB (g per 1). Forty-five microliters of bacterial suspension were mixed with […] of H2O (control) or with […] of different concentrations of cathelin-like proteins, and the mixture was incubated at 37° C. Every 30 min, a […] aliquot of the reaction mixture was plated directly onto a TSB agar plate and then incubated at 37° C. overnight for enumeration of CFU. Data are reported as growth index=final CFU/CFU in initial inoculum. […]

human liver cathepsin L = molecular target: T1, human liver cathepsin L (Homo sapiens, UniProt P07711); assay: Proteinase activity inhibition assay (hydrolysis of Z-Phe-Arg-AMC); type: biochemical
T1 construct: human liver cathepsin L (Calbiochem, Calif.); purchased Calbiochem; host or cells: human liver
Protocol: FIG. 2 show the proteinase inhibitory activity of recombinant cathelin-like protein. Hydrolysis of the fluorogenic substrate Z-Phe-Arg-AMC by cathepsin L (protease alone), and in the presence of cathelin-like protein (protease+cathelin). […] Slopes, intercepts, and correlation coefficients were calculated by linear regression. Data were recorded 10 times over 30 min and are representative of two experiments.
Proteinase activity inhibition assay. Proteinase inhibitory activity of recombinant cathelin-like protein was assayed spectrofluorometrically by measuring its inhibitory action against human liver cathepsin L (Calbiochem, Calif.). For the reaction assay, cathepsin L (0.1 mU) in the assay buffer ([…] sodium acetate, 60 mM acetic acid, 8 mM dithiothreitol, and 4 mM EDTA, pH 5.5, supplemented with 0.1% BRIJ 35) was preincubated for 2 min at 30° C. with 10^−6 M cathelin-like protein before adding […] of substrate Z-Phe-Arg-7-amido-4-methylcoumarin (Calbiochem). When hydrolyzed by cathepsin L, this substrate releases highly fluorescent 7-amido-4-methylcoumarin (AMC). AMC intensity was determined using spectrophotometer at 370 nm excitation and an emission wavelength of 460 nm. One unit was defined as the amount of enzyme that will hydrolyze 1.0 mmol of Z-Phe-Arg-AMC per min at 25° C., pH 5.5.
Proteinase inhibitory activity. To evaluate the possible protease inhibitory activity action of cathelin-like protein, the activity of human cathepsin L was measured in the presence or absence of recombinant cathelin-like protein using the fluorescent substrate Z-Phe-Arg-AMC.

E. coli = assay: Colony-forming assay (CFU), liquid phase; type: cell-based; parameters: unit of the concentration uncertain; settings: 10 mM phosphate, 1% TSB
Protocol: as §1, §2

[1] = test system: Proteus vulgaris (ATCC 8427); assay: Radial diffusion (inhibition zone) assay; type: cell-based; settings: P. vulgaris
Protocol: (§3) Antimicrobial assays. E. coli (ATCC 25922), Pseudomonas aeruginosa (ATCC 8427), Salmonella typhimurium (ATCC 13311), Proteus vulgaris (ATCC 8427), Staphylococcus epidermidis (ATCC 12228), and MRSA (ATCC 33591) isolates were maintained on trypticase soy broth (TSB) agar plates. Individual colonies were selected and cultured overnight in TSB, subcultured once at 1:50 in fresh TSB, and then grown to stationary phase for use in all experiments. The radial diffusion assay was performed in 0.5% agarose and 0.75% tryptone brought to ebullition and cooled to 43° C., and then mixed with […] of bacterial suspension and poured into a 10 cm Petri dish. A series of small wells (diameter, 3 mm) were punched in the plate after the agarose solidified. Two microliters of test samples were applied in each well. Plates were incubated at 37° C. overnight to allow visible growth of bacteria. Antibacterial activity was indicated by the clear zone (no bacterial growth) around the well.
(§4) Antimicrobial activity of recombinant cathelin-like protein. Recombinant cathelicidins were tested for antimicrobial activity using a standard radial diffusion assay. Different concentrations of the cathelin-like protein were loaded into wells on assay plates containing Gram-positive MRSA, S. epidermidis, and strains of the Gram-negative bacterial species E. coli, S. enteritidis, P. vulgaris, and P. aeruginosa. […] Similarly, cathelin-like protein inhibited growth of S. epidermidis ([…]) but not S. enteritidis or P. vulgaris.

S. enteritidis = assay: Radial diffusion (inhibition zone) assay; type: cell-based
Protocol: as §3, §4

[2] = test system: Staphylococcus epidermidis (ATCC 12228); assay: Radial diffusion (inhibition zone) assay; type: cell-based; settings: S. epidermidis
Protocol: as §3, §4

[3] = test system: Pseudomonas aeruginosa (ATCC 8427); assay: Radial diffusion (inhibition zone) assay; type: cell-based; settings: P. aeruginosa
Protocol: as §3, §4

E. coli (ATCC 25922) = assay: Radial diffusion (inhibition zone) assay; type: cell-based
Protocol: as §3, §4

MRSA (ATCC 33591) = assay: Radial diffusion (inhibition zone) assay; type: cell-based, Staphylococcus aureus; settings: MRSA
Protocol: as §1
as §3, with “A series of small wells (diameter, 3 mm) were punched in the plate after the agarose solidified. Two microliters of test samples were applied in each well. Plates were incubated at 37° C. overnight to allow visible growth of bacteria. Antibacterial activity was indicated by the clear zone (no bacterial growth) around the well.” left out

T1 sequence (P07711 114-288 limits assumed): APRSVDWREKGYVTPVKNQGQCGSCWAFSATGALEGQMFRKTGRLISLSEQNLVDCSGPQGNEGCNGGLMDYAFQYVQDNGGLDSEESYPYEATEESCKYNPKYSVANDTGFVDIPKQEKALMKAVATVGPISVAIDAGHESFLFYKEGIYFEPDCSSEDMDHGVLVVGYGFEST
T1 sequence (P07711 292-333 limits assumed): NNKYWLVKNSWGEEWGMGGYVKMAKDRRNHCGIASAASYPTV

| Molecule | effect on growth (CFU) (MRSA; concentration not given) | slope of fluorescence generation (linear regression) (human liver cathepsin L; cathepsin L + cathelin-like protein, cathepsin L alone slope 1.31) | hydrolytic activity of cathepsin L inhibited by (human liver cathepsin L; protein added at final concentration of 10^-6 M, substrate Z-Phe-Arg-AMC) [%] | effect on growth (CFU) (E. coli; 16 (unit uncertain), pH 7.4, compared to untreated controls) | growth inhibition [1] | growth inhibition (S. enteritidis) | minimal inhibitory activity against growth, concentration [2] | growth inhibition [3] | minimal inhibitory activity against growth, concentration (E. coli (ATCC 25922)) | minimal inhibitory activity against growth, concentration (MRSA (ATCC 33591)) | effect on growth (CFU) (MRSA) | cathepsin L inhibitory activity (human liver cathepsin L; parallel experiments) | effect on growth (CFU) (E. coli; 32 (unit uncertain), pH 7.4) | minimal inhibitory activity against growth, concentration [1] | minimal inhibitory activity against growth, concentration (S. enteritidis) | minimal inhibitory activity against growth, concentration [3] |
| --- | --- | --- | --- | --- | --- | --- | --- | --- | --- | --- | --- | --- | --- | --- | --- | --- |
| cathelin-like protein: recombinant human cathelin-like domain of hCAP18, residues 31-131 of SEQ ID NO:2, expressed in E. coli, His-tag cleaved by enterokinase (protein, listed as Homo sapiens) QVLSYKEAVLRAIDGINQRSSDANLYRLLDLDPRPTMDGDPDTPKPVSFTVKETVCPRTTQQSPEDCDFKKDGLVKRCMGTVTLNQARGSFDISCDKDNKR | decreased MRSA CFU for the first 15 min and then was bacteriostatic | 0.71 | 46 | marked growth inhibition | not | not | 32 mM | did not inhibit growth | 16 mM | 32 mM | – | – | – | – | – | – |
| hCAP18/LL-37: recombinant human full-length cathelicidin, residues 31-170 of SEQ ID NO:2, inactive precursor (protein, listed as Homo sapiens) QVLSYKEAVLRAIDGINQRSSDANLYRLLDLDPRPTMDGDPDTPKPVSFTVKETVCPRTTQQSPEDCDFKKDGLVKRCMGTVTLNQARGSFDISCDKDNKRFALLGDFFRKSKEKIGKEFKRIVQRIKDFLRNLVPRTES | – | – | – | – | – | – | greater than 64 mM | – | greater than 64 mM | greater than 64 mM | did not show any activity | did not demonstrate inhibitory activity | did not show any activity | greater than 64 mM | greater than 64 mM | greater than 64 mM |
